Substrate: O=CCCC(=O)C(=O)O
Assay: purified protein
Type: biochemical, Corynebacterium glutamicum
Conditions: 5 mM NAD+, 100 mM potassium phosphate, pH 7.5, 30 °C

B1: KsaD (Cg0535) (Corynebacterium glutamicum ATCC 13032) (protein)
chain: MITATALHGCSLIDGEWVAGKNGEITGFDPRTNASLNPSYSLANSAQLRAATTSAKRAFESYRLTTPEVRADFLDSIADNIDALSGEIVQRASLETGLGTTRLTGEVARTSNQLRLFAETVRSGQFHRVRIERGPRIDLRQRQVPLGPVAVFGASNFPVAFSTAGGDTASALAAGCPVVFKAHNAHPGTAELVGQAVRGAVEKHEFDAGVFNLVYGRGVEIGQELAADPNITAIGFTGSRQGGLALSQTAFSRPVPVPVFAEMSATNPVFVFPGALADLDASSSLAEAFTASVTGSSGQLCTKPGLVFIPRGVVGDAFVALVAAKFKETTGQTMLTQGIAQAWQRGVDNLAAQPSVKILAQGTPGDGENAPGPVVFESDVQALLNNVVLQEEIFGAASLVVRYDSPDQLHQVANSLEGQLTATIHASQDDFQEVSKLIPLLEDLAGRVLYGGWPTGVEVGHTVIHGGPYPATSNAQSTSVGTLAIERFMRPVSYQTFPAELLPDPVSEANKWAVPREIDR
notes: N-terminus MITATA after tag (from primer)
B1 was tested. Which Km did it give?
Its Km is 870 µM.

Reference: paper PMC6475665, “Alone at last! – Heterologous expression of a single gene is sufficient for establishing the five-step Weimberg pathway in Corynebacterium glutamicum” (Metabolic Engineering Communications, 2019)
